Peptide text beside a SMILES is read from it. * marks the point of attachment. pNA = O=[N+]([O-])c1ccc(N*)cc1; Tos = Cc1ccc(S(=O)(=O)*)cc1
Tests used:
Assay in all cases: Trypsin activity with Chromozym TH as substrate, kinetic constants kcat and Km
[1] = target: T1, humanes Trypsin I, Trypsinvariante rTRYI-VGR (Aktivierungspeptid ValGlyArg, autokatalytisch aktiviert) (Homo sapiens, UniProt P07477); format: biochemical; conditions: Substrat: Chromozym®TH; 25°C, 50 mmol/l Tris-HCl, 150 mmol/l NaCl, 5 mmol/l CaCl2, 0,1% PEG 8000, pH 8,0
T1 construct: kodierend für Trypsin I von Aminosäureposition 24-247; made in house
Experimental: Das N-terminale native Trypsinogen I Prosegment AlaProPheAspAspAspAspLys wurde durch das Aktivierungspeptid ValGlyArg ersetzt. Das TRYI-VGR Trypsinvariantengen wurde analog wie das TRYI-GPK Trypsinvariantengen mittels PCR-Technik hergestellt.
(§1) Die Aktivitätsbestimmung von Trypsin wurde in einem Volumen von 1 ml in 50 mmol/l Tris-HCl, 150 mmol/l NaCl, 5 mmol/l CaCl2, 0,1% PEG 8000, pH 8,0 und 0,1 mmol/l des chromogenen Substrats Chromozym®TH (Tosyl-Gly-Pro-Arg-4-pNA, Kat.-Nr. 838268, Boehringer Mannheim GmbH, Mannheim, Deutschland) bei 25°C durchgeführt. Die Reaktion wurde durch Zugabe von 1-10 µl Trypsin-haltiger Probe (0,4-4 U/ml, gelöst in 1 mmol/l HCl) gestartet und die Absorptionsänderung/min (ΔA/min) bei 405 nm (ε405 = 9,75 [mmol^-1 x 1 x cm^-1]) bestimmt. 1 Chromozym®TH Unit Trypsin ist definiert als die Menge Enzym, die 1 µmol pNitroanilin (pNA) pro min bei 25°C aus dem chromozymen Substrat freisetzt.
Die FXa Aktivitätsbestimmung wurde mit dem chromogenen Substrat Chromozym® X (0,1 mmol/l, N-Methoxycarbonyl-D-Nle-Gly-Arg-pNA, Boehringer Mannheim GmbH, Mannheim, Kat.-Nr. 789763) in einem Volumen von 1 ml bei 25°C in 50 mmol/l Tris-HCl, 150 mmol/l NaCl, 5 mmol/l CaCl2, 0,1% PEG 8000, pH 8,0, durchgeführt. […]

[2] = substrate: Cc1ccc(S(=O)(=O)NCC(=O)N2CCC[C@H]2C(=O)N[C@@H](CCCNC(=N)N)C(=O)Nc2ccc([N+](=O)[O-])cc2)cc1; format: biochemical, Schweine; conditions: other: Substrat: Chromozym®TH, 25°C, 50 mmol/l Tris-HCl, 150 mmol/l NaCl, 5 mmol/l CaCl2, 0,1% PEG 8000, pH 8,0
Experimental: as §1
(§2) Die FXa Aktivitätsbestimmung wurde mit dem chromogenen Substrat Chromozym® X (0,1 mmol/l, N-Methoxycarbonyl-D-Nle-Gly-Arg-pNA, Boehringer Mannheim GmbH, Mannheim, Kat.-Nr. 789763) in einem Volumen von 1 ml bei 25°C in 50 mmol/l Tris-HCl, 150 mmol/l NaCl, 5 mmol/l CaCl2, 0,1% PEG 8000, pH 8,0, durchgeführt. Die Reaktion wurde durch Zugabe von 1-10 µl rFXa-haltiger Probe (0,4-4 U/ml) gestartet und die Absorptionsänderung/min (ΔA/min) bei 405 nm (ε405 = 9,75 [mmol^-1 x 1 x cm^-1]) gemessen. 1 Unit (U) FXa Aktivität ist definiert als die Menge Enzym, die 1 µmol pNA pro min bei 25°C aus dem chromozymen Substrat freisetzt. Die Aktivität und die kinetischen Konstanten wurden aus der linearen Anfangssteigung gemäß der Michaelis-Menten-Gleichung bestimmt. Die Ergebnisse zeigt Tabelle 1. Tabelle 1

[3] = substrate: Cc1ccc(S(=O)(=O)NCC(=O)N2CCC[C@H]2C(=O)N[C@@H](CCCNC(=N)N)C(=O)Nc2ccc([N+](=O)[O-])cc2)cc1; format: biochemical, human; conditions: other: Substrat: Chromozym®TH, 25°C, 50 mmol/l Tris-HCl, 150 mmol/l NaCl, 5 mmol/l CaCl2, 0,1% PEG 8000, pH 8,0
Excerpt: Durch Einführung einer zusätzlichen Disulfidbrücke wurde das humane Trypsin I Isoenzym verändert. Dazu wurde die Aminosäure Pro an Position 132 und die Aminosäure Tyr an Position 233 zu Cys mutiert (Aminosäuresequenz-Nummerierung entsprechend der Publikation von Emi, M. et al. (Gene 41 (1986) 305-310)). Durch diese 2 Punktmutationen (P132C und Y233C) kann sich eine zusätzliche 6-te Disulfidbrücke zwischen den erfindungsgemäß eingeführten Cysteinresten an Position 132 und 233 ausbilden. Zudem wurde die Aminosäure Pro an der Position 133 zu Ala mutiert (P133A).
as §1, §2

Cc1ccc(S(=O)(=O)NCC(=O)N2CCC[C@H]2C(=O)N[C@@H](CCCNC(=N)N)C(=O)Nc2ccc([N+](=O)[O-])cc2)cc1 [Chromozym®TH, Tosyl-Gly-Pro-Arg-4-pNA] (Tos-Gly-Pro-Arg-pNA)
kcat [1]: 95 ± 1 s⁻¹

B1: Schweine Trypsin (Sigma-Aldrich Chemie GmbH, Kat.-Nr. T-7418) (Sus scrofa) (protein)
chain: IVGGYTCAANSIPYQVSLNSGSHFCGGSLINSQWVVSAAHCYKSRIQVRLGEHNIDVLEGNEQFINAAKIITHPNFNGNTLDNDIMLIKLSSPATLNSRVATVSLPRSCAAAGTECLISGWGNTKSSGSSYPSLLQCLKAPVLSDSSCKSSYPGQITGNMICVGFLEGGKDSCQGDSGGPVVCNGQLQGIVSWGYGCAQKNKPGVYTKVCNYVNWIQQTIAAN
notes: purchased Sigma-Aldrich Chemie GmbH T-7418
Km [2]: 8.5 µM | kcat [2]: 97 ± 3 s⁻¹ | kcat/Km [2]: 11,4 1/µM/s

B2: humanes Trypsin I, Trypsinvariante rTRYI-GPK-SS (P132C, P133A, Y233C; zusätzliche Disulfidbrücke) (Homo sapiens; P132C/P133A/Y233C) (protein)
chain: IVGGYNCEENSVPYQVSLNSGYHFCGGSLINEQWVVSAGHCYKSRIQVRLGEHNIEVLEGNEQFINAAKIIRHPQYDRKTLNNDIMLIKLSSRAVINARVSTISLPTACAATGTKCLISGWGNTASSGADYPDELQCLDAPVLSQAKCEASYPGKITSNMFCVGFLEGGKDSCQGDSGGPVVCNGQLQGVVSWGDGCAQKNKPGVYTKVCNYVKWIKNTIAANS
notes: kodierend für Trypsin I von Aminosäureposition 24-247; the Lys is residue 23) (N, cleaved yes); made in house
Km [3]: 19 ± 1 µM | kcat [3]: 99 ± 2 s⁻¹ | kcat/Km [3]: 5,2 1/µM/s
